Source: IntAct's records for PubMed 29892012

B1: Keratin, type I cuticular Ha8 (Homo sapiens), O76015 (parent)
chain: MTSSYSSSSCPLGCTMAPGARNVSVSPIDIGCQPGAEANIAPMCLLANVAHANRVRVGSTPLGRPSLCLPPTCHTACPLPGTCHIPGNIGICGAYGENTLNGHEKETMQFLNDRLANYLEKVRQLEQENAELEATLLERSKCHESTVCPDYQSYFHTIEELQQKILCSKAENARLIVQIDNAKLAADDFRIKLESERSLRQLVEADKCGTQKLLDDATLAKADLEAQQESLKEEQLSLKSNHEQEVKILRSQLGEKLRIELDIEPTIDLNRVLGEMRAQYEAMLETNRQDVEQWFQAQSEGISLQDMSCSEELQCCQSEILELRCTVNALEVERQAQHTLKDCLQNSLCEAEDRFGTELAQMQSLISNVEEQLSEIRADLERQNQEYQVLLDVKTRLENEIATYRNLLESEDCKLPCNPCSTSPSCVTAPCAPRPSCGPCTTCGPTCGASTTGSRF
partner: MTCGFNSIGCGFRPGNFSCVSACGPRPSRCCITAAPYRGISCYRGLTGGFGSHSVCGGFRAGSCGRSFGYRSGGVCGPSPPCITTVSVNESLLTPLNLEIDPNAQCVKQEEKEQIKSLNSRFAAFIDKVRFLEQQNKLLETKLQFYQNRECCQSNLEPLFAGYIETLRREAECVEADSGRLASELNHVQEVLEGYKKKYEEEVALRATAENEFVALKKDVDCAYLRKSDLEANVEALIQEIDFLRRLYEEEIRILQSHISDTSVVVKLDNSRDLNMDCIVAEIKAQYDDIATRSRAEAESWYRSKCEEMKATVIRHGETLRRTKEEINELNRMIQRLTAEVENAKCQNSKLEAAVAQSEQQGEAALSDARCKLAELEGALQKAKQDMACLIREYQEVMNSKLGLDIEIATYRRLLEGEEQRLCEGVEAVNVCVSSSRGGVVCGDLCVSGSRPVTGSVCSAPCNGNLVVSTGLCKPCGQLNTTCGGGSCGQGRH
B2: Casein kinase II subunit alpha (Homo sapiens), P68400 (parent)
chain: MSGPVPSRARVYTDVNTHRPREYWDYESHVVEWGNQDDYQLVRKLGRGKYSEVFEAINITNNEKVVVKILKPVKKKKIKREIKILENLRGGPNIITLADIVKDPVSRTPALVFEHVNNTDFKQLYQTLTDYDIRFYMYEILKALDYCHSMGIMHRDVKPHNVMIDHEHRKLRLIDWGLAEFYHPGQEYNVRVASRYFKGPELLVDYQMYDYSLDMWSLGCMLASMIFRKEPFFHGHDNYDQLVRIAKVLGTEDLYDYIDKYNIELDPRFNDILGRHSRKRWERFVHSENQHLVSPEALDFLDKLLRYDHQSRLTAREAMEHPYFYTVVKDQARMGSSSMPGGSTPVSSANMMSGISSVPTPSPLGPLAGSPVIAAANPLGMPVPAAAGAQQ
partner: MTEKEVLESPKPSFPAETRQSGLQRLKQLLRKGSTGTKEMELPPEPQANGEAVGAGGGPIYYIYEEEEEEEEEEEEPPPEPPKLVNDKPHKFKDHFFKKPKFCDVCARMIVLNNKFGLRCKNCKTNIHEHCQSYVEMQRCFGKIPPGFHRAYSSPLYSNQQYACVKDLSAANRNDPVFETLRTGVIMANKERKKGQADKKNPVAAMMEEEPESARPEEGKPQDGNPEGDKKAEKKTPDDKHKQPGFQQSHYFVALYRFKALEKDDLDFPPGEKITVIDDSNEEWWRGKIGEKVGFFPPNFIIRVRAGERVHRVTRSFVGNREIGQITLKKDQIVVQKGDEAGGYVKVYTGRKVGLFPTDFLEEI
B3: Vacuolar protein-sorting-associated protein 25 (Homo sapiens), Q9BRG1 (parent)
chain: MAMSFEWPWQYRFPPFFTLQPNVDTRQKQLAAWCSLVLSFCRLHKQSSMTVMEAQESPLFNNVKLQRKLPVESIQIVLEELRKKGNLEWLDKSKSSFLIMWRRPEEWGKLIYQWVSRSGQNNSVFTLYELTNGEDTEDEEFHGLDEATLLRALQALQQEHKAEIITVSDGRGVKFF
partner: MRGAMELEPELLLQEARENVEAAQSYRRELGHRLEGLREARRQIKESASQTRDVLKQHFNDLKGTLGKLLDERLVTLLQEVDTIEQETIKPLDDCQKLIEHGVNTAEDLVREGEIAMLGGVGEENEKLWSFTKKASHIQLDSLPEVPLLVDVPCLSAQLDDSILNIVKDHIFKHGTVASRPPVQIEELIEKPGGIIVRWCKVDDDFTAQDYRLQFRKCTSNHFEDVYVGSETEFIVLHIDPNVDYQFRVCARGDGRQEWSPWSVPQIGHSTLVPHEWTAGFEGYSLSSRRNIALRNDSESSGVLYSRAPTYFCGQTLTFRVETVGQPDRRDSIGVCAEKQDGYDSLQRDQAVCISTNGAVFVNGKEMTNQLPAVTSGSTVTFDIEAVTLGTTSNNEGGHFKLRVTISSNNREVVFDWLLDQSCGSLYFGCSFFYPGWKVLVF

Variants of: B1
Settings: with krt83_human KRT83, P78385

Variant	effect of a mutation on the interaction
D306A	with no effect

Variants of: B1
Settings: with krt83_human KRT83, P78385
Remark: another data set of the same source

Variant	effect of a mutation on the interaction
N270K	with no effect

Variants of: B2
Settings: with stac3_human STAC3, Q96MF2

Variant	effect of a mutation on the interaction
K198R	with no effect

Variants of: B3
Settings: with crlf3_human CRLF3, Q8IUI8

Variant	effect of a mutation on the interaction
P58Q	with no effect
